Laboratory results as given in paper PMC3553676.

T1: Ku (Mycobacterium smegmatis, UniProt A0R3S7 1-318)
T1 sequence: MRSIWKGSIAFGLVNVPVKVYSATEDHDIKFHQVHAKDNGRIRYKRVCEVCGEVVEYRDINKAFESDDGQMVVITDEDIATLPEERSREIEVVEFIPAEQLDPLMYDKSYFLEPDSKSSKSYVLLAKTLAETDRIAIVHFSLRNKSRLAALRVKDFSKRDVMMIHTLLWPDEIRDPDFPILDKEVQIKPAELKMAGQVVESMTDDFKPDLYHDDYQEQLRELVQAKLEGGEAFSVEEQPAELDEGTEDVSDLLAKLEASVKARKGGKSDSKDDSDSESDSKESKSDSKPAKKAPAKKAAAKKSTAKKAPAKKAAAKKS

B1: 21/34 nt hairpin substrate (structured_DNA)
DNA 1: GTTTTTAGTTTATTGGGCGCG
DNA 2: CGCGCCCAGCTTTCCCAGCTAATAAACTAAAAAC
B2: 37 bp DNA (dsDNA)
DNA 1: CCTAGGCTACACCTACTCTTTGTAAGAATTAAGCTTC
DNA 2: GAAGCTTAATTCTTACAAAGAGTAGGTGTAGCCTAGG

Tests used:
Ku [1] = molecular target: T1, Ku; test: EMSA
Ku [2] = molecular target: T1, Ku; test: EMSA; remark: listed apart in the source

Row | Binder | binding result (Ku [1]) | Kd (Ku [2]) [nM]
1 | B1 | binds | 
2 | B2 |  | 8.6 ± 0.5
